Patent US20230192896A1 (BIOVERATIV THERAPEUTICS, published 2023)
Positions count from the first letter of the chain named.

B1: BIIB-9-882 (antibody, V domains shown)
VH: QVQLVQSGAEVKKPGASVKVSCKASGYTFTSYYMHWVRQAPGQGLEWMGIINPSGGSTSYAQKFQGRVTMTRDTSTSTVYMELSSLRSEDTAVYYCARGPTDSSGYLDMDVWGKGTTVTVSS
VL: EIVMTQSPATLSVSPGERATLSCRASQSVSSNLAWYQQKPGQAPRLLIFGASTRATGIPARFSGSGSGTEFTLTISSLQSEDFAVYYCQQHDNFPPTFGGGTKVEIK
notes: IgG
B2: BIIB-9-888 (antibody, V domains shown)
VH: B1 VH
VL: B1 VL with F49Y, S80P, H91A, D92F, F94W
notes: IgG
B3: BIIB-9-470 (antibody, V domains shown)
VH: EVQLVESGGGLVQPGGSLRLSCAASGFTFSSYWMSWVRQAPGKGLEWVANIKQDGSEKYYVDSVKGRFTISRDNAKNSLYLQMNSLRAEDTAVYYCARDAGIAWALDYWGQGTLVTVS
VL: DIQMTQSPSTLSASVGDRVTITCRASQSISSWLAWYQQKPGKAPKLLIYKASSLESGVPSRFSGSGSGTEFTLTISSLQPDDFATYYCQHPHSWTFGGGTKVEIK
notes: IgG
B4: BIIB-9-472 (antibody, V domains shown)
VH: EVQLVESGGGLVKPGGSLRLSCAASGFTFSSYSMNWVRQAPGKGLEWVSSISSSSSYIYYADSVKGRFTISRDNAKNSLYLQMNSLRAEDTAVYYCARGGRYSGSWSWNIWGQGTMVTVSS
VL: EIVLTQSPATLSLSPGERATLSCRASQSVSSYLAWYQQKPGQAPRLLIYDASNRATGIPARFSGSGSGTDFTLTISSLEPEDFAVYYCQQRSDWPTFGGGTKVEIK
notes: IgG
B5: BIIB-9-886 (antibody, V domains shown)
VH: QVQLVQSGAEVKKPGASVKVSCKASGYTFTSYYMHWVRQAPGQGLEWMGIINPSGGSTSYAQKFQGRVTMTRDTSTSTVYMELSSLRSEDTAVYYCARDPAHSYLDAFDIWGQGTMVTVSS
VL: DIQMTQSPSSVSASVGDRVTITCRASQGISSWLAWYQQKPGKAPKLLIYAASSLQSGVPSRFSGSGSGTDFTLTISSLQPEDFATYYCQQASSFPFTFGGGTKVEIK
notes: IgG
B6: BIIB-9-625 (antibody, V domains shown)
VH: QLQLQESGPGLVKPSETLSLTCTVSGGSISSSSYAWGWIRQPPGKGLEWIGSIYYSGSTYYNPSLKSRVTISVDTSKNQFSLKLSSVTAADTAVYYCARDRGWYTEVLDIWGQGTMVTVSS
VL: B5 VL with V11L, G28S, W32Y, A34N, A91S, S92D, S93T, F94D, F96P
notes: IgG
B7: BIIB-9-887 (antibody, V domains shown)
VH: QVQLVQSGAEVKKPGASVKVSCKASGYTFTSYYMVWVRQAPGQGLEWMGIINPSGGSTSYAQKFQGRVTMTRDTSTSTVYMELSSLRSEDTAVYYCARDAEAHWIPGMDVWGQGTTVTVSS
VL: B5 VL
notes: IgG
B8: BIIB-9-607 (antibody, V domains shown)
VH: QLQLQESGPGLVKPSETLSLTCTVSGGSISSSSYYWGWIRQPPGKGLEWIGSISYSGSTYYNPSLKSRVTISVDTSKNQFSLKLSSVTAADTAVYYCARDRGYSYEDFDLWGRGTLVTVS
VL: DIQMTQSPSTLSASVGDRVTITCRASQSISSWLAWYQQKPGKAPKLLIYKASSLESGVPSRFSGSGSGTEFTLTISSLQPDDFATYYCQQAGRYPLTFGGGTKVEIK
notes: IgG
B9: BIIB-9-568 (antibody, V domains shown)
VH: QLQLQESGPGLVKPSETLSLTCTVSGGSISSSSYYWGWIRQPPGKGLEWIGSIYYSGSTYYNPSLKSRVTISVDTSKNQFSLKLSSVTAADTAVYYCARDLGYAATYFDLWGRGTLVTVSS
VL: DIQMTQSPSSLSASVGDRVTITCQASQDISNYLNWYQQKPGKAPKLLIYDASNLETGVPSRFSGSGSGTDFTFTISSLQPEDIATYYCQQYDDYLTFGGGTKVEIK
notes: IgG
B10: BIIB-9-1276 (antibody, V domains shown)
VH: B6 VH with A35Y, R101V, W103R, Y104T, T105Y, V107L, L108F
VL: B5 VL with A91G, S92N, F96I
notes: IgG
B11: BIIB-9-889 (antibody, V domains shown)
VH: B9 VH with L101V, Y103W, A104Y, A105T, T106E
VL: B1 VL with F49Y, H91A, D92F, F94W
notes: IgG
B12: BIIB-9-1265 (antibody, V domains shown)
VH: B6 VH with A35Y, R101G, G102R, W103H, T105Y, V107L, L108F, I110Y, M116L
VL: B5 VL with A91G, S92N, F96I
notes: IgG
B13: BIIB-9-446 (antibody, V domains shown)
VH: QVQLVQSGAEVKKPGSSVKVSCKASGGTFSSYAISWVRQAPGQGLEWMGGIIPIFGTASYAQKFQGRVTITADESTSTAYMELSSLRSEDTAVYYCARGLEVGYYGYFDYWGQGTLVTVSS
VL: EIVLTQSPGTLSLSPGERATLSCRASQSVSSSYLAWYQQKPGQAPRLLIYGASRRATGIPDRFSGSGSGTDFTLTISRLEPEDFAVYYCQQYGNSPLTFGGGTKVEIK
notes: IgG
B14: BIIB-9-1266 (antibody, V domains shown)
VH: QVQLVQSGAEVKKPGASVKVSCKASGYTFTSYYMHWVRQAPGQGLEWMGIINPSGGSTSYAQKFQGRVTMTRDTSTSTVYMELSSLRSEDTAVYYCARDHGWAIYGMDVWGQGTTVTVSS
VL: EIVMTQSPATLSLSPGERATLSCRASQSVSSYLAWYQQKPGQAPRLLIYDSSNRATGIPARFSGSGSGTDFTLTISSLEPEDFAVYYCQQRLNFPFTFGGGTKVEIK
notes: IgG
B15: BIIB-9-471 (antibody, V domains shown)
VH: QVQLQESGPGLVKPSQTLSLTCTVSGGSISSGGYYWSWIRQHPGKGLEWIGYIYYSGSTYYNPSLKSRVTISVDTSKNQFSLKLSSVTAADTAVYYCARSGVSGSGSDNWFDPWGQGTTVTVSS
VL: B14 VL with M4L, S31R, S51A, R91D, L92Y, F94Y
notes: IgG
B16: BIIB-9-433 (antibody, V domains shown)
VH: B9 VH with S33R, L101A, A104S, T106E, Y107L, L110Y, R113Q
VL: B14 VL with M4L, S51A, R91S, L92S, N93A, F94Y, F96P
notes: IgG
B17: BIIB-9-1264 (antibody, V domains shown)
VH: B14 VH with H100G, G101D, W102S, A103S, I104V, G106A, M107F, V109Y, T115L
VL: DIQMTQSPSSLSASVGDRVTITCQASQDITNYLNWYQQKPGKAPKLLIYDASNLETGVPSRFSGSGSGTDFTFTISSLQPEDIATYYCQQVDDYPFTFGGGTKVEIK
notes: IgG
B18: BIIB-9-615 (antibody, V domains shown)
VH: QVQLVQSGAEVKKPGASVKVSCKASGYTFTSYYMHWVRQAPGQGLEWMGIINPSGGSTSYAQKFQGRVTMTRDTSTSTVYMELSSLRSEDTAVYYCARDSPSSSSYWSLDLWGRGTLVTVSS
VL: B14 VL with M4L, S51A, R91S, L92C, N93H, F94W, F96W
notes: IgG
B19: BIIB-9-439 (antibody, V domains shown)
VH: B14 VH with S59T, D99E, H100A, G101T, W102E, A103S, I104Y, G106Y, Q112K
VL: B14 VL with L92D, F94W
notes: IgG
B20: BIIB-9-445 (antibody, V domains shown)
VH: QVQLVQSGAEVKKPGASVKVSCKASGYTFTSYYIHWVRQAPGQGLEWMGIINPSGGSTSYAQKFQGRVTMTRDTSTSTVYMELSSLRSEDTAVYYCARDVGQDYWFDLWGRGTLVTVSS
VL: B1 VL with F49Y, G50S, H91Y, P96F
notes: IgG
B21: BIIB-9-628 (antibody, V domains shown)
VH: QVQLVQSGAEVKKPGASVKVSCKASGYTFTSYYMHWVRQAPGQGLEWMGIINPSGGSTSYAQKFQGRVTMTRDTSTSTVYMELSSLRSEDTAVYYCAREPIAYGATLDLWGRGTLVTVSS
VL: EIVLTQSPGTLSLSPGERATLSCRASQSVSSDYLAWYQQKPGQAPRLLIYGASSRATGIPDRFSGSGSGTDFTLTISRLEPEDFAVYYCQQYVVFPFTFGGGTKVEIK
notes: IgG
B22: BIIB-9-884 (antibody, V domains shown)
VH: QLQLQESGPGLVKPSETLSLTCTVSGGSISSSDYYWGWIRQPPGKGLEWIGSIYYSGSTYYNPSLKSRVTISVDTSKNQFSLKLSSVTAADTAVYYCARSPRHKVRGPNWFDPWGQGTLVTVSS
VL: B21 VL with D32S, V93H, V94L, F95L, F97P
notes: IgG

Molecular target: T1, free FIXa (activated Factor IX) (human, UniProt P00740 47-191; P00740 227-461)
T1 construct: BLI antigen bought from Haematologic Technologies (HCIXA-0050); also called factor IXa
Test: BLI; class meaning: paragraph 914

Binding result, binds:
B1
B2
B3
B4
B5
B6
B7
B8
B9
B10
B11
B12
B13
B14
B15
B16
B17
B18
B19
B20
B21
B22

Molecular target: T2, FIXa-SM (FIXa+EGR-CMK) (human, UniProt P00740 47-191; P00740 227-461, EGR-CMK (L-Glu-Gly-Arg chloromethyl ketone) covalently bound to the active site)
T2 construct: BLI antigen bought from Haematologic Technologies (HCIXA-EGR); also called FIXa with substrate mimic
Test: BLI; class meaning: paragraph 914

Binding result, binds:
B1
B2
B3
B4
B5
B6
B7
B8
B9
B10
B11
B12
B13
B14
B15
B16
B17
B18
B19
B20
B21
B22
